Source: patent US7947873

Columns and labels:
Assay in all cases: cell_activity
[1] = tested on: AGMT8-C1 ZFP-TF (Artificial); details: control 1.00; napin promoter; effective activator in leaf, not in seed per p274
[2] = tested on: CGMT4-C1 ZFP-TF (Artificial); details: control 39.9; napin promoter, transgenic canola
[3] = tested on: AGMT5-C1 ZFP-TF (Artificial); details: control 1.00; napin promoter, transgenic Arabidopsis
[4] = tested on: AGMT10-C1 ZFP-TF (Artificial); details: control 1.00; napin promoter; effective activator in leaf
[5] = tested on: AGMT9-C1 ZFP-TF (Artificial); details: control 1.00; napin promoter, transgenic Arabidopsis
[6] = tested on: CGMT6-C1 ZFP-TF (Artificial); details: control 39.9; napin promoter, transgenic canola
[7] = tested on: CGMT12-C1 ZFP-TF (Artificial); details: control 39.9; napin promoter, transgenic canola
[8] = tested on: CGMT3-C1 ZFP-TF (Artificial); details: control 39.9; napin promoter, transgenic canola
[9] = tested on: AGMT7-C1 ZFP-TF (Artificial); details: control 1.00; napin promoter; 35S promoter 1.69; 5-fold GMT mRNA increase in leaf protoplasts (p271)
[10] = tested on: CGMT10-C1 ZFP-TF (Artificial); details: control 39.9; napin promoter, transgenic canola
[11] = tested on: CGMT9-C1 ZFP-TF (Artificial); details: control 39.9; napin promoter, transgenic canola
[12] = tested on: AGMT6-C1 ZFP-TF (Artificial); details: control 1.00; napin promoter, transgenic Arabidopsis

GAAGAGGGTG (double strand) [ZFP C / AGMT8 target]
activity (% alpha-tocopherol in T2 seed) [1]: 1.57

GAGGAAGAT (double strand) [CGMT4 target]
activity (% alpha-tocopherol in R1 seed) [2]: 51.9

GAGGAAGGGG (double strand) [ZFP A / AGMT5 target]
activity (% alpha-tocopherol in T2 seed) [3]: 4.45

GAGGAGGAGG (double strand) [ZFP E / AGMT10 target]
activity (% alpha-tocopherol in T2 seed) [4]: 2.86

GAGGAGGATG (double strand) [ZFP D / AGMT9 target]
activity (% alpha-tocopherol in T2 seed) [5]: 2.31

GAGGTTGGA (double strand) [CGMT6 target]
activity (% alpha-tocopherol in R1 seed) [6]: 59.6

GAGGTTGGC (double strand) [CGMT12 target]
activity (% alpha-tocopherol in R1 seed) [7]: 64.5

GATGCTGGT (double strand) [CGMT3 target]
activity (% alpha-tocopherol in R1 seed) [8]: 46.6

GGGGAAAGGG (double strand) [ZFP B / AGMT7 target]
activity (% alpha-tocopherol in T2 seed) [9]: 5.95

GTAGAGGAC (double strand) [CGMT10 target]
activity (% alpha-tocopherol in R1 seed) [10]: 54.2

TAGTTGGAA (double strand) [CGMT9 target]
activity (% alpha-tocopherol in R1 seed) [11]: 46.2

TGGGTAGTC (double strand) [AGMT6 target]
activity (% alpha-tocopherol in T2 seed) [12]: 1.74
